Measured values from the supplement of paper PMC7877785.
± gives the uncertainty stated by the source.

Test: self-splicing fitness, log relative to wild type (ln ratio); higher = more splicing; Tetrahymena group I intron in knt gene, E. coli kanamycin selection, DiMSum; sequences stand for … in CUCUCU…GGAGGGAAAAGUUAUCAGGCAUGCACCUGGUAGCUAGUCUUUAAACCAAUAGAUUGCAUCGGUUUAAAAGGCAAGACCGUCAAAUUGCGGGAAAGGGGUCAACAGCCGUUCAGUACCAAGUCUCAGGGGAAACUUUGAGAUGGCCUUGCAAAGGGUAUGGUAAUAAGCUGACGGACAUGGUCCUAACCACGCAGCCAAGUCCUAAGUCAACAGAUCUUCUGUUGAUAUGGAUGCAGUUCACAGACUAAAUGUCGGUCGGGGAAGAUGUAUUCUUCUCAUAAGAUAUAGUCGGACCUCUCCUUAAUGGGAGCUAGCGGAUGAAGUGAUGCAACACUGGAGCCGCUGGGAACUAAUUUGUAUGCGAAAGUAUAUUGAUUAGUUUUGGAGUACUCGUGGUCG
How it was run: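 The eight P1ex-region nucleotides of an intron in the knt kanamycin-resistance gene on pET-22b(+) were all randomised and the library put into E. coli BL21(DE3). Six replicate transformations were grown overnight at 37°C or 30°C on LB agar with or without 25 μg/mL kanamycin, together with 100 μg/mL carbenicillin, 50 μM IPTG and 0.2% rhamnose. Colonies were pooled and amplicon-sequenced on an Illumina HiSeq 2500. Fitness from DiMSum is the error-weighted combination of wild-type-normalised replicate fold changes, kanamycin over none.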

Sequence	self-splicing fitness (ln) (30 °C)	self-splicing fitness (ln) (37 °C)
AAAAAGCAAUAUUACGACAA	-0.322 ± 0.1	0.331 ± 0.12
AAAAAGCAAUAUUACGACUU	0.0987 ± 0.065	-0.391 ± 0.085
AAAAAGCAAUAUUACGAGGG	-3.5 ± 0.18	-1.84 ± 0.16
AAAAAGCAAUAUUACGAUUU	0.149 ± 0.074	0.324 ± 0.095
AAAAAGCAAUAUUACGCACU	0.146 ± 0.079	0.322 ± 0.083
AAAAAGCAAUAUUACGCAUC	-2.24 ± 0.13	-1.34 ± 0.15
AAAAAGCAAUAUUACGCGAU	-2.51 ± 0.16	-1.07 ± 0.14
AAAAAGCAAUAUUACGCGCG	-0.0286 ± 0.091	-0.207 ± 0.11
AAAAAGCAAUAUUACGCUAU	-2.04 ± 0.11	-1.31 ± 0.11
AAAAAGCAAUAUUACGCUUC	-3.38 ± 0.3	
AAAAAGCAAUAUUACGGAGG	-3.71 ± 0.21	-2.94 ± 0.2
AAAAAGCAAUAUUACGGAUA	-2.25 ± 0.11	-1.14 ± 0.097
AAAAAGCAAUAUUACGGCGA	-0.0921 ± 0.08	0.25 ± 0.12
AAAAAGCAAUAUUACGGGAC	-1.94 ± 0.098	-0.477 ± 0.11
AAAAAGCAAUAUUACGGGUG	-1.69 ± 0.062	-0.982 ± 0.077
AAAAAGCAAUAUUACGGGUU	-1.38 ± 0.075	-1.37 ± 0.11
AAAAAGCAAUAUUACGUAAC	-2.45 ± 0.13	-1.12 ± 0.13
AAAAAGCAAUAUUACGUAUA	-2.14 ± 0.14	-1.5 ± 0.15
AAAAAGCAAUAUUACGUCGG	-1.36 ± 0.082	-1.39 ± 0.1
AAAAAGCAAUAUUACGUCUA	-0.394 ± 0.053	0.068 ± 0.07
AAAAAGCAAUAUUACGUCUU	-0.301 ± 0.043	0.361 ± 0.063
AAAAAGCAAUAUUACGUGGU	-3.26 ± 0.11	-2.74 ± 0.12
AAAAAGCAAUAUUACGUUAG	-3.37 ± 0.17	-2.61 ± 0.16
AAACAGCAAUAUUACGAAAG	-2.21 ± 0.13	-1.57 ± 0.18
AAACAGCAAUAUUACGCCAA	-3.08 ± 0.25	-1.44 ± 0.15

Sequence	self-splicing fitness (ln) (30 °C)	self-splicing fitness (ln) (37 °C)
AAACAGCAAUAUUACGCCAU	-3.26 ± 0.17	-2.42 ± 0.18
AAACAGCAAUAUUACGCGAG	-1.6 ± 0.076	-1.12 ± 0.096
AAACAGCAAUAUUACGCGGA	-2.23 ± 0.11	-1.02 ± 0.093
AAACAGCAAUAUUACGCUGA	-3.16 ± 0.14	-1.52 ± 0.11
AAACAGCAAUAUUACGGAAG	-3.7 ± 0.2	-1.8 ± 0.17
AAACAGCAAUAUUACGGCAU	-0.814 ± 0.066	-0.78 ± 0.08
AAACAGCAAUAUUACGGCUU	-0.312 ± 0.052	0.129 ± 0.07
AAACAGCAAUAUUACGGGAA	-2.41 ± 0.17	-1.24 ± 0.12
AAACAGCAAUAUUACGGGAC	-3.74 ± 0.25	-2.35 ± 0.26
AAACAGCAAUAUUACGGGCC	-3.42 ± 0.17	-2.29 ± 0.16
AAACAGCAAUAUUACGGGUG	-3.09 ± 0.094	-1.73 ± 0.089
AAACAGCAAUAUUACGGGUU	-2.28 ± 0.09	-1.8 ± 0.11
AAACAGCAAUAUUACGGUGA	-0.283 ± 0.093	-0.496 ± 0.12
AAACAGCAAUAUUACGGUGC	-2.97 ± 0.11	-3.4 ± 0.17
AAACAGCAAUAUUACGGUGG	-2.61 ± 0.096	-1.93 ± 0.12
AAACAGCAAUAUUACGGUUG	-1.99 ± 0.061	-0.629 ± 0.075
AAACAGCAAUAUUACGGUUU	-3.64 ± 0.11	-2.51 ± 0.12
AAACAGCAAUAUUACGUCAG	-3.36 ± 0.12	-2.41 ± 0.12
AAACAGCAAUAUUACGUGUG	-2.38 ± 0.057	-1.38 ± 0.07
AAACAGCAAUAUUACGUUGA	-2.58 ± 0.094	-1.23 ± 0.089
AAACAGCAAUAUUACGUUGG	-3.61 ± 0.1	-2.43 ± 0.11
AAACAGCAAUAUUACGUUGU	-4.04 ± 0.1	-2.73 ± 0.1
AAACAGCAAUAUUACGUUUC	-3.8 ± 0.1	-2.73 ± 0.11
AAAGAGCAAUAUUACGAACC		-1.39 ± 0.46
AAAGAGCAAUAUUACGAUAG	-3.88 ± 0.23	-2.9 ± 0.2

Sequence	self-splicing fitness (ln) (30 °C)	self-splicing fitness (ln) (37 °C)
AAAGAGCAAUAUUACGAUCU	-1.42 ± 0.12	-0.518 ± 0.12
AAAGAGCAAUAUUACGAUGA	-3.01 ± 0.25	-2.02 ± 0.19
AAAGAGCAAUAUUACGCAAU	-3.59 ± 0.21	-1.65 ± 0.16
AAAGAGCAAUAUUACGCACC	-2.03 ± 0.15	-0.855 ± 0.17
AAAGAGCAAUAUUACGCAUU	-3.61 ± 0.19	-1.88 ± 0.21
AAAGAGCAAUAUUACGCUGA	-2.1 ± 0.14	-2.6 ± 0.26
AAAGAGCAAUAUUACGGCAA	-3.23 ± 0.36	-1.58 ± 0.19
AAAGAGCAAUAUUACGGGUC	-3.24 ± 0.21	-3.09 ± 0.37
AAAGAGCAAUAUUACGGUAG	-3.9 ± 0.27	-2.11 ± 0.18
AAAGAGCAAUAUUACGGUGC	-3.49 ± 0.17	-1.54 ± 0.15
AAAGAGCAAUAUUACGGUGG	-2.85 ± 0.15	-2.14 ± 0.25
AAAGAGCAAUAUUACGUAGA	-3.25 ± 0.24	-1.7 ± 0.2
AAAGAGCAAUAUUACGUGGA	-3.36 ± 0.32	-2.67 ± 0.26
AAAGAGCAAUAUUACGUGGU	-4.52 ± 0.27	-3.08 ± 0.18
AAAGAGCAAUAUUACGUGUA	-3.3 ± 0.16	-2.27 ± 0.22
AAAGAGCAAUAUUACGUGUC	-3.42 ± 0.15	-2.2 ± 0.12
AAAUAGCAAUAUUACGAGGC	-3.64 ± 0.47	
AAAUAGCAAUAUUACGCCAG	-2.53 ± 0.24	-2.09 ± 0.42
AAAUAGCAAUAUUACGCCGU	-1.37 ± 0.21	0.028 ± 0.18
AAAUAGCAAUAUUACGCGGA	-1.9 ± 0.12	-0.348 ± 0.081
AAAUAGCAAUAUUACGCUGG	-1.94 ± 0.13	-1.15 ± 0.17
AAAUAGCAAUAUUACGCUGU	-3.27 ± 0.14	-1.89 ± 0.1
AAAUAGCAAUAUUACGGAUU	-0.612 ± 0.074	-1.1 ± 0.09
AAAUAGCAAUAUUACGGCAU	-0.403 ± 0.093	-0.183 ± 0.13
AAAUAGCAAUAUUACGGGAC	-3.19 ± 0.29	-1.57 ± 0.24
